According to article PMC6650547 (mBio, 2019):

Target: T1, His-SUDV-NP(34-367) (Sudan virus (SUDV), strain Boniface, UniProt Q9QP77 34-367)
T1 sequence: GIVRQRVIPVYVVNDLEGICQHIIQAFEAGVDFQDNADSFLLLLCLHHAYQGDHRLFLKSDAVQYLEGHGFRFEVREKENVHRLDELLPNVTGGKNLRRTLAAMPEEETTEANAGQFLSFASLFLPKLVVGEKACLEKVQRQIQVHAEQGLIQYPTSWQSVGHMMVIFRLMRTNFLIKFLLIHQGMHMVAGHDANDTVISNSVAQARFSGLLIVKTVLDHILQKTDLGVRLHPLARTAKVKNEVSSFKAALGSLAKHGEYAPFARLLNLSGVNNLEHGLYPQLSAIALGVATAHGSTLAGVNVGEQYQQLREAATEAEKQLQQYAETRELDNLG
Test: BLI; […] ([…]), 60 s association, 60 s dissociation; […]; Octet Red
Details: both partners purified

MQQDRTYRHHGPEVSGWFSEQLMTGKIPLTEVFV [SUDV VP35 wild-type chaperone domain peptide (residues 1 to 34)]
Kd: ~3.86 nM
